# Data from patent US20190248881A1.
# Where two headings read alike, the source gives them in different places.
# Legend:
# TGF-β3 [1] = molecular target: T1, TGF-β3 (UniProt P10600)
# T1 sequence (looked up): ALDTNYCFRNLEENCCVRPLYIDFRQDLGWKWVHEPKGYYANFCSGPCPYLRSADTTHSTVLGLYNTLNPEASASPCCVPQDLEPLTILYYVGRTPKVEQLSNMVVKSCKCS
# TGF-β1 [2] = molecular target: TGF-β1 (UniProt P01137)
# TGF-β3 [3] = molecular target: T1, TGF-β3; remark: listed apart in the source
# TGF-β2 [4] = molecular target: T2, TGF-β2 (UniProt P61812)
# T2 sequence (looked up): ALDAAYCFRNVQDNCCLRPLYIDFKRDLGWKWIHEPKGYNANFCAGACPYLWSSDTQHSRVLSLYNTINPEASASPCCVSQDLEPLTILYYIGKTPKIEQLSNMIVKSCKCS
# TGF-β1 [5] = molecular target: TGF-β1 (UniProt P01137); remark: listed apart in the source
# TGF-β2 [6] = molecular target: T2, TGF-β2; remark: listed apart in the source
# TGF-β1 [7] = molecular target: TGF-β1 (UniProt P01137); experiment: SPR; cycle 10, TGF-B1
# TGF-β2 [8] = molecular target: T2, TGF-β2; experiment: SPR; cycle 10, TGF-B2
# TGF-β3 [9] = molecular target: T1, TGF-β3; experiment: SPR; cycle 10, TGF-B3
# TGF-β1 [10] = molecular target: TGF-β1 (UniProt P01137); experiment: SPR; cycle 12, TGF-B1
# TGF-β2 [11] = molecular target: T2, TGF-β2; experiment: SPR; cycle 12, TGF-B2
# TGF-β3 [12] = molecular target: T1, TGF-β3; experiment: SPR; cycle 12, TGF-B3
# TGF-β1 [13] = molecular target: TGF-β1 (UniProt P01137); experiment: SPR; cycle 14, TGF-B1
# TGF-β2 [14] = molecular target: T2, TGF-β2; experiment: SPR; cycle 14, TGF-B2
# TGF-β3 [15] = molecular target: T1, TGF-β3; experiment: SPR; cycle 14, TGF-B3
# TGF-β1 [16] = molecular target: TGF-β1 (UniProt P01137); experiment: cell-based or functional assay
# TGF-β2 [17] = molecular target: T2, TGF-β2; experiment: cell-based or functional assay
# TGF-β3 [18] = molecular target: T1, TGF-β3; experiment: cell-based or functional assay
# TGF-β1 [19] = molecular target: TGF-β1 (UniProt P01137); experiment: cell-based or functional assay; parameters: unit not given beside the values
# TGF-β2 [20] = molecular target: T2, TGF-β2; experiment: cell-based or functional assay; parameters: unit not given beside the values
# TGF-β3 [21] = molecular target: T1, TGF-β3; experiment: cell-based or functional assay; parameters: unit not given beside the values
# TGF-β1 [22] = molecular target: TGF-β1 (UniProt P01137); experiment: SPR; average of cycles 10, 12, 14, TGF-B1
# TGF-β2 [23] = molecular target: T2, TGF-β2; experiment: SPR; average of cycles 10, 12, 14, TGF-B2
# TGF-β3 [24] = molecular target: T1, TGF-β3; experiment: SPR; average of cycles 10, 12, 14, TGF-B3
# Sequence of UniProt P01137 (P01137 279-390 limits assumed): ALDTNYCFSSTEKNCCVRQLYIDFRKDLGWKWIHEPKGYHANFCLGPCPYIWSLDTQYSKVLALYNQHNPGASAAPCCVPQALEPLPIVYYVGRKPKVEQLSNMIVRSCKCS
binder,measurement,setting,value
"1D11 (PCT-001), mouse monoclonal anti-TGF-β antibody (antibody, from another filing, V domains shown) VH: QVQLQQSGPELVRPGASVKLSCKASGYIFITYWMNWVKQRPGQGLEWIGQIFPASGSTNYNEMFEGKATLTVDTSSSTAYMQLSSLTSEDSAVYYCARGDGNYALDAMDYWGQGTSVTVSS VL: DIVLTQSPASLAVSLGQRATISCRASESVDSYGNSFMHWYQQKSGQPPKLLIYLASNLESGVPARFSGSGSRTDFTLTIDPVEADDAATYYCQQNNEDPLTFGAGTKLEIK",IC50 (read off the curve),TGF-β3 [1],0.02 nM
same,IC50 (read off the curve),TGF-β1 [2],0.1 nM
same,IC50 (read off the curve),TGF-β3 [3],0.03 nM
same,IC50 (read off the curve),TGF-β2 [4],0.2 nM
same,IC50 (read off the curve),TGF-β1 [5],0.2 nM
same,IC50 (read off the curve),TGF-β2 [6],0.4 nM
same,Kd,TGF-β1 [7],0.102 nM
same,koff,TGF-β1 [7],4.23e-05 s⁻¹
same,kon,TGF-β1 [7],416000 M⁻¹ s⁻¹
same,Kd,TGF-β2 [8],0.0832 nM
same,koff,TGF-β2 [8],5.17e-05 s⁻¹
same,kon,TGF-β2 [8],621000 M⁻¹ s⁻¹
same,Kd,TGF-β3 [9],0.0108 nM
same,koff,TGF-β3 [9],2.9e-06 s⁻¹
same,kon,TGF-β3 [9],268000 M⁻¹ s⁻¹
same,Kd,TGF-β1 [10],0.0873 nM
same,koff,TGF-β1 [10],4.18e-05 s⁻¹
same,kon,TGF-β1 [10],479000 M⁻¹ s⁻¹
same,Kd,TGF-β2 [11],0.082 nM
same,koff,TGF-β2 [11],5.54e-05 s⁻¹
same,kon,TGF-β2 [11],675000 M⁻¹ s⁻¹
same,Kd,TGF-β3 [12],0.016 nM
same,koff,TGF-β3 [12],5.06e-06 s⁻¹
same,kon,TGF-β3 [12],316000 M⁻¹ s⁻¹
same,Kd,TGF-β1 [13],0.0733 nM
same,koff,TGF-β1 [13],3.78e-05 s⁻¹
same,kon,TGF-β1 [13],515000 M⁻¹ s⁻¹
same,Kd,TGF-β2 [14],0.0723 nM
same,koff,TGF-β2 [14],4.98e-05 s⁻¹
same,kon,TGF-β2 [14],690000 M⁻¹ s⁻¹
same,Kd,TGF-β3 [15],0.00793 nM
same,koff,TGF-β3 [15],2.75e-06 s⁻¹
same,kon,TGF-β3 [15],346000 M⁻¹ s⁻¹
same,"EC50, TGF-β isoform neutralization",TGF-β1 [16],0.0478 nM
same,EC50 for neutralization of TGF-β,TGF-β1 [16],164 picomol/L
same,"EC50, TGF-β isoform neutralization",TGF-β2 [17],0.591 nM
same,EC50 for neutralization of TGF-β,TGF-β2 [17],382 picomol/L
same,"EC50, TGF-β isoform neutralization",TGF-β3 [18],0.225 nM
same,EC50 for neutralization of TGF-β,TGF-β3 [18],19 picomol/L
same,IC50 for neutralization of TGF-β,TGF-β1 [19],0.0722
same,IC50 for neutralization of TGF-β,TGF-β2 [20],0.492
same,IC50 for neutralization of TGF-β,TGF-β3 [21],0.0547
same,Kd,TGF-β1 [22],0.0873 nM
same,koff,TGF-β1 [22],4.06e-05 s⁻¹
same,kon,TGF-β1 [22],470000 M⁻¹ s⁻¹
same,Kd,TGF-β2 [23],0.0792 nM
same,koff,TGF-β2 [23],5.23e-05 s⁻¹
same,kon,TGF-β2 [23],662000 M⁻¹ s⁻¹
same,Kd,TGF-β3 [24],0.0116 nM
same,koff,TGF-β3 [24],3.57e-06 s⁻¹
same,kon,TGF-β3 [24],310000 M⁻¹ s⁻¹
